Reference: patent publication US20230416347A1

Assays:
Assay in all cases: EuLISA
TAL ALκ liver extract = target: TAL ALκ liver extract
[1] = target: Per125 wtATTR extract (human) (UniProt P02766)
SHI ALλ liver extract = target: SHI ALλ liver extract
[2] = target: KEN hATTR extract (human) (UniProt P02766)
rVλ6Wil fibrils = target: rVλ6Wil fibrils

| LogEC50 (TAL ALκ liver extract) | Max (TAL ALκ liver extract) | LogEC50 [1] | Max [1] | LogEC50 (SHI ALλ liver extract) | Max (SHI ALλ liver extract) | LogEC50 [2] | Max [2] | EC50 (rVλ6Wil fibrils) | LogEC50 (rVλ6Wil fibrils) | Max (rVλ6Wil fibrils) | Substance |
| --- | --- | --- | --- | --- | --- | --- | --- | --- | --- | --- | --- |
| 3 -log(M) | 2220 | 7.92 -log(M) | 8.38 | 7.88 -log(M) | 2.5 | 9.06 -log(M) | -0.8 | 1280 nM | 5.89 -log(M) | 39.3 | hIgG1 (antibody) |
| – | – | – | – | – | – | 2.39 -log(M) | 294000 | – | – | – | m11-1F4 (antibody) |
| – | – | – | – | – | – | -1.36 -log(M) | 19700 | – | – | – | chimeric antibody c11-1F4 |
